Assay results taken from patent US20190040151A1.

What was measured:
[1] = molecular target: HER2 on the surface of N87 (NCI-N87) human gastric carcinoma cells (human) (UniProt P04626); experiment: cell-based or functional assay
[2] = molecular target: HER2-ECD (human epidermal growth factor receptor 2-extracellular domain) (human) (UniProt P04626)

IgG1(trastuzumab)-AL1-PE38KDEL (antibody)
IC50 (pM), cytotoxicity on N87 cells (WST-1) [1]: 498 pM

scFv(trastuzumab)-PE38KDEL
EC50 [2]: 0.15 nM
